Positions count from the first letter of the chain named.
B1: SEQ ID NO 127 (designed binder)
chain: MLPAPKNLVVSRVTEDSARLSWTAPDAAFDSFPIPYGESPPSGEAIVLTVPGSERSYDLTGLKPGTEYVVIIRGVKGGGRSGPLSAISTT
notes: FN3 domain
B2: SEQ ID NO 113 (designed binder)
chain: MLPAPKNLVVSRVTEDSARLSWTAPDAAFDSFDIHYKEHSWWGEAIVLTVPGSERSYDLTGLKPGTEYIVPIPGVKGGGISRPLSAIFTT
notes: FN3 domain
B3: SEQ ID NO 153 (designed binder)
chain: MLPAPKNLVVSRVTEDSARLSWTAPDAALDSFRIAYTEYFVGGEAIVLTVPGSERSYDLTGLKPGTEYGVGIYGVKGGAGSSPLSAIFTT
notes: FN3 domain
B4: SEQ ID NO 84 (designed binder)
chain: MLPAPKNLVVSRVTEDSARLSWTAPDAAFDSFPIYYWEVFPAGEAIELDVPGSERSYDLTGLKPGTEYFVRIEGVKGGASSYPLRAEFTT
notes: FN3 domain
B5: SEQ ID NO 102 (designed binder)
chain: MLPAPKNLVVSRVTEDSARLSWTAPDAAFDSFSIDYDEPQPVGEAIVLTVPGSERSYDLTGLKPGTEYRVDIWGVKGGPTSGPLRATFTT
notes: FN3 domain
B6: SEQ ID NO 213 (designed binder)
chain: B5 chain with S33W, D35Y, D37W, P39I, Q40E, P41R, V42A, V47R, T49D
notes: FN3 domain
B7: SEQ ID NO 89 (designed binder)
chain: MLPAPKNLVVSRVTEDSARLSWTAPDAAFDSFHISYEETPVVGEAIYLRVPGSERSYDLTGLKPGTEYTVAIHGVKGGRESTPLIAPFTT
notes: FN3 domain
B8: SEQ ID NO 99 (designed binder)
chain: MLPAPKNLVVSRVTEDSARLSWTAPDAAFDSFGIQYNEFVFRGEAIVLTVPGSERSYDLTGLKPGTEYFVPISGVKGGDDSRPLSAIFTT
notes: FN3 domain
B9: SEQ ID NO 107 (designed binder)
chain: B8 chain with G33F, N37T, F39S, V40H, F41W, R42V, F69A, S73E, D80S, R82T
notes: FN3 domain
B10: SEQ ID NO 111 (designed binder)
chain: MLPAPKNLVVSRVTEDSARLSWTAPDAAFDSFWIYYYESVGTGEAIVLTVPGSERSYDLTGLKPGTEYFVDISGVKVGTYSLPLSAIFTT
notes: FN3 domain
B11: SEQ ID NO 87 (designed binder)
chain: MLPAPKNLVVSRVTEDSARLSWTAPDAAFDSFAIEYYEPVPAGEAIYLDVPGSERSYDLTGLKPGTEYDVTIYGVKGGYYSHPLFASFTT
notes: FN3 domain
B12: SEQ ID NO 157 (designed binder)
chain: B11 chain with P39Y, P41G, A42N, Y47V, D49T, D69Q, T71G, H82R, F85S, S87I
notes: FN3 domain
B13: SEQ ID NO 142 (designed binder)
chain: MLPAPKNLVVSRVTKDSARLSWTAPDAAFDSFHIAYEEATTYGEAIFLRVPGSERSYDLTGLKPGTEYEVKIHGVKGGADSKPLVAPFTT
notes: FN3 domain
B14: SEQ ID NO 100 (designed binder)
chain: MLPAPKNLVVSRVTEDSARLSWTAPDAAFDSFWIEYWEVVGFGEAIVLTVPGSERSYDLTGLKPGTEYWVGIYGVKGGNPSVPLSAIFTT
notes: FN3 domain
B15: SEQ ID NO 129 (designed binder)
chain: B14 chain with W33D, W37Y, V39A, F42A, W69T, N79W, P80L, V82K, A86V
notes: FN3 domain
B16: SEQ ID NO 103 (designed binder)
chain: B14 chain with P3L, W33A, W37F, V39Y, V40T, F42E, W69Y, N79Y, P80L, V82R
notes: FN3 domain
B17: SEQ ID NO 126 (designed binder)
chain: MLPAPKNLVVSRVTEDSARLSWTAPDAAFDSFSIDYLELGESGEAIVLTVPGSERSYDLTGLKPGTEYWVYIFGVKGGYPSAPLSAIFTT
notes: FN3 domain
B18: SEQ ID NO 139 (designed binder)
chain: B17 chain with S33D, D35S, L37W, L39S, E41K, S42Y, R55S, W69L, Y71D, A82E
notes: FN3 domain
B19: SEQ ID NO 94 (designed binder)
chain: MLPAPKNLVVSRITEDSARLSWTAPDAAFDSFGIYYYEWWSTGEAIVLTVPGSERSYDLTGPKPGTEYYVKISGVKGGYRSYPLSAIFTT
notes: FN3 domain
B20: SEQ ID NO 91 (designed binder)
chain: MLPAPKNLVVSRVTEDSARLSWTAPDAAFDSFVIEYWERTQPGEAIVLTVPGSERSYDLTGLKPGTEYDVWISGVKGGKWSEPLSAIFTT
notes: FN3 domain
B21: SEQ ID NO 120 (designed binder)
chain: MLPAPKNLVVSRVTEDSARLSWTAPDAAFDSFRIEYIEWWVGGEAIVLTVPGSERSYDLTGLKPGTEYWVDIKGVKGGKRSYPLSAIFTT
notes: FN3 domain
B22: SEQ ID NO 171 (designed binder)
chain: B21 chain with R33A, E35R, I37L, V41D, G42V, W69L, D71E, R80F
notes: FN3 domain
B23: SEQ ID NO 155 (designed binder)
chain: MLPAPKNLVVSRVTEDSARLSWTAPDAAFDSFPITYRERSQYGEAIVLTVPGSERSYDLTGLKPGTEYVVPIEGVKGGRGSKPLSAIFTT
notes: FN3 domain
B24: SEQ ID NO 119 (designed binder)
chain: MLPAPKNLVVSRVTEDSARLSWTAPDAAFDSFHIEYEETPQKGEAIFLRVPGSERSYDLTGLKPGTEYVVNIRGVKGGDLSSPLGALFTT
notes: FN3 domain
B25: SEQ ID NO 143 (designed binder)
chain: MLPAPKNLVVSRVTEDSARLSWTAPDAAFDSFHIAYEEADSEGEAIYLRVPGSERSYDLTGLKPGTEYSVNIQGVKGGIVSFPLHAEFTT
notes: FN3 domain
B26: SEQ ID NO 128 (designed binder)
chain: MLPAPKNLVVSRVTEDSARLSWTAPDAAFDSFIINYIEIVQYGEAIVLTVPGSERSYDLTGLKPGTEYPESIWGVKGGGASSPLSAIFTT
notes: FN3 domain
B27: SEQ ID NO 148 (designed binder)
chain: MLPAPKNLVVSRVTEDSARLSWTAPDAAFDSFHIEYEEQYSTGEAIYLRVPGSERSYDLTGLKPGTEYHVDIEGVKGGRRSFPLNAFFTT
notes: FN3 domain
B28: SEQ ID NO 121 (designed binder)
chain: MLPAPKNLVVSRVTEDSARLSWTAPDAAFDSFSIDYPEFPVRGEAIVLTVPGSERSYDLTGPKPGTEYNVTIQGVKGGFPSMPLSAIFTT
notes: FN3 domain
B29: SEQ ID NO 124 (designed binder)
chain: B28 chain with P62L, N69A, Q73W, P80T, M82Q
notes: FN3 domain
B30: SEQ ID NO 140 (designed binder)
chain: B28 chain with S33W, D35S, P37E, F39S, P40D, V41T, R42E, V47Y, T49R, P62L
notes: FN3 domain
B31: SEQ ID NO 97 (designed binder)
chain: MLPAPKNLVVSRVTEDSARLSWTAPDAAFDSFFISYFEGWASGEAIHLYVPGSERSYDLTGLKPGTEYSVHIQGVKGGQPSTPLSAIFTT
notes: FN3 domain
B32: SEQ ID NO 161 (designed binder)
chain: MLPAPKNLVVSRVTEDSARLSWTAPDAAFDSFTIRYWEELPTGEAIVLTVPGSERSYDLTGLKPGTEYTVEIFGVKGGYLSRPLSAISTT
notes: FN3 domain
B33: SEQ ID NO 130 (designed binder)
chain: MLPAPKNLVVSRVTEDSARLSWTAPDAAFDSFHIPYVEAEVPGEAIQLHVPGSERSYDLTGLKPGTEYYVEIWGVKGGFYSPPLIAEFTT
notes: FN3 domain
B34: SEQ ID NO 106 (designed binder)
chain: MLPAPKNLVVSRVTEDSARLSWTAPDAAFDSFTIAYEEHGLVGEAIYLRVPGSERSYDLTGLKPGTEYHVGIMGVKGGVFSSPLSAIFTT
notes: FN3 domain
B35: SEQ ID NO 109 (designed binder)
chain: B34 chain with T33H, H39L, G40V, L41T, V42E, H69L, G71D, M73E, V79H, F80L
notes: FN3 domain
B36: SEQ ID NO 220 (designed binder)
chain: MLPAPKNLVVSRVTEDSARLSWTAPDAAFDSFHIIYEEDGTEGEAIYLRVPGSERSYDLTGLKPGTEYEVDIEGVKGGVLSWPLFAEFTT
notes: FN3 domain
B37: SEQ ID NO 162 (designed binder)
chain: B13 chain with K15E, E69D, K71W, H73E, A79T, D80I, K82G, V85S, P87I
notes: FN3 domain

Target: T1, recombinant biotinylated CD71 extracellular domain (Sino Biologics) with an N-terminal 6His tag (human, UniProt P02786 89-760, biotinylated (sites not given))
T1 construct: extracellular domain; also called hCD71; huCD71
Experiment: screening ELISA, ratio

T1 sequence (P02786 other isoform, or with tags, fused parts or gaps): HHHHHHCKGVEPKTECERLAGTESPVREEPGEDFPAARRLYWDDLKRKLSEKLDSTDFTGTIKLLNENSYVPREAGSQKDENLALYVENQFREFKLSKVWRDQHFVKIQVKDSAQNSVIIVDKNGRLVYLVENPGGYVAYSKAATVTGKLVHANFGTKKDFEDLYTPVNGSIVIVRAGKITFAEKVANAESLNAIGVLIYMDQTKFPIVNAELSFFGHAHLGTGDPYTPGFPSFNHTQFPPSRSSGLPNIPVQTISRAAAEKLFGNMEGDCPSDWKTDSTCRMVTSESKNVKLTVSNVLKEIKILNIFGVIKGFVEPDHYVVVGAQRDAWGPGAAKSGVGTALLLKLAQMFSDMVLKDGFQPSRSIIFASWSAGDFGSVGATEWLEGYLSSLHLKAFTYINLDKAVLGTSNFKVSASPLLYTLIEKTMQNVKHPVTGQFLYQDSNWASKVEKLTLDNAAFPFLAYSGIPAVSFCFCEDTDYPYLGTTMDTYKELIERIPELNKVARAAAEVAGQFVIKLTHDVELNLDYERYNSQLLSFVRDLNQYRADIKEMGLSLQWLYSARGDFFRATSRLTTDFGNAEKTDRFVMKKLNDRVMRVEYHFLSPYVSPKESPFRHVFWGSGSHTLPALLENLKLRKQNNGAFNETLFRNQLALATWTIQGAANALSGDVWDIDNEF

hCD71:HSA	Binder
38	B1
95	B2
73	B3
449	B4
258	B5
215	B6
1720	B7
105	B8
104	B9
322	B10
2580	B11
1080	B12
1000	B13
1260	B14
1540	B15
4020	B16
2570	B17
1440	B18
44	B19

hCD71:HSA	Binder
800	B20
1970	B21
1960	B22
71	B23
1710	B24
426	B25
204	B26
1990	B27
83	B28
175	B29
2610	B30
1090	B31
240	B32
239	B33
495	B34
3860	B35
452	B36
2100	B37

Target: T1, recombinant biotinylated CD71 …
Experiment: screening ELISA

hCD71	Binder
3.56e+06	B1
2.14e+06	B2
957000	B3
1.73e+06	B4
3.48e+06	B5
2.11e+06	B6
3.44e+06	B7
853000	B8
420000	B9
2.4e+06	B10
2.83e+06	B11
2.66e+06	B12
3.41e+06	B13
2.95e+06	B14
2.31e+06	B15
4.83e+06	B16
4.49e+06	B17
3.03e+06	B18
439000	B19

hCD71	Binder
1.44e+06	B20
3.64e+06	B21
3.72e+06	B22
1.84e+06	B23
3.16e+06	B24
3.94e+06	B25
664000	B26
3.98e+06	B27
2.37e+06	B28
605000	B29
4.18e+06	B30
2.41e+06	B31
1.21e+06	B32
1.45e+06	B33
594000	B34
4.83e+06	B35
4.25e+06	B36
3.88e+06	B37
